Data on 7 variants can be found in IntAct's records for PubMed 28325809.

The chains are these.
B1: Pleckstrin homology domain-containing family M member 1 (Homo sapiens), Q9Y4G2 (parent)
chain: MLSVVENGLDPQAAIPVIKKKLVGSVKALQKQYVSLDTVVTSEDGDANTMCSALEAVFIHGLHAKHIRAEAGGKRKKSAHQKPLPQPVFWPLLKAVTHKHIISELEHLTFVNTDVGRCRAWLRLALNDGLMECYLKLLLQEQARLHEYYQPTALLRDAEEGEFLLSFLQGLTSLSFELSYKSAILNEWTLTPLALSGLCPLSELDPLSTSGAELQRKESLDSISHSSGSEDIEVHHSGHKIRRNQKLTASSLSLDTASSSQLSCSLNSDSCLLQENGSKSPDHCEEPMSCDSDLGTANAEDSDRSLQEVLLEFSKAQVNSVPTNGLSQETEIPTPQASLSLHGLNTSTYLHCEAPAEPLPAQAASGTQDGVHVQEPRPQAPSPLDLQQPVESTSGQQPSSTVSETAREVGQGNGLQKAQAHDGAGLKLVVSSPTSPKNKSWISEDDFYRPSREQPLESASDHPIASYRGTPGSRPGLHRHFSQEPRKNCSLGALDQACVPSPGRRQAQAAPSQGHKSFRVVHRRQMGLSNPFRGLMKLGTVERRGAMGIWKELFCELSPLEFRLYLSNEEHTCVENCSLLRCESVGPAHSDGRFELVFSGKKLALRASSQDEAEDWLDRVREALQKVRPQQEDEWVNVQYPDQPEEPPEAPQGCLSPSDLLSEPAALQGTQFDWSSAQVPEPDAIKESLLYLYMDRTWMPYIFSLSLEALKCFRIRNNEKMLSDSHGVETIRDILPDTSLGGPSFFKIITAKAVLKLQAGNAEEAALWRDLVRKVLASYLETAEEAVTLGGSLDENCQEVLKFATRENGFLLQYLVAIPMEKGLDSQGCFCAGCSRQIGFSFVRPKLCAFSGLYYCDICHQDDASVIPARIIHNWDLTKRPICRQALKFLTQIRAQPLINLQMVNASLYEHVERMHLIGRRREQLKLLGDYLGLCRSGALKELSKRLNHRNYLLESPHRFSVADLQQIADGVYEGFLKALIEFASQHVYHCDLCTQRGFICQICQHHDIIFPFEFDTTVRCAECKTVFHQSCQAVVKKGCPRCARRRKYQEQNIFA
B2: ADP-ribosylation factor-like protein 8B (Homo sapiens), Q9NVJ2 (parent)
chain: MLALISRLLDWFRSLFWKEEMELTLVGLQYSGKTTFVNVIASGQFSEDMIPTVGFNMRKVTKGNVTIKIWDIGGQPRFRSMWERYCRGVNAIVYMIDAADREKIEASRNELHNLLDKPQLQGIPVLVLGNKRDLPNALDEKQLIEKMNLSAIQDREICCYSISCKEKDNIDITLQWLIQHSKSRRS

In assay [1] the parent is B1. The following applies: with arl8b_human ARL8B.
Variants of B1 are the subject of assay [2]. The following applies: with rab7a_human RAB7A.
The variants in assay [3] derive from B1. Conditions: with arl8b_human ARL8B. This is another data set of the same source.
Assay [4] covers variants of B1. The following applies: with mlp3b_human MAP1LC3B.
The variants in assay [5] derive from B1. Conditions: with mlp3b_rat Map1lc3b.
Variants of B2 are the subject of assay [6]. The following applies: with pkhm1_human PLEKHM1, Q9Y4G2.

Turning to R123A, the figures for the “effect of a mutation on the interaction” value in assay [1] and in assay [2] were “disrupting interaction strength” and “with no effect”, respectively.
Regarding H63A, the “effect of a mutation on the interaction” value in assay [1] was “disrupting interaction strength”; in assay [2], “with no effect”; in assay [3], “with no effect”.
R117A;R119A: the entries for the “effect of a mutation on the interaction” value in assay [1], in assay [2] and in assay [3] were “disrupting interaction strength”, “with no effect” and “decreasing interaction strength”, respectively.
Turning to H60A, the “effect of a mutation on the interaction” value in assay [1] is listed as “disrupting interaction strength”; in assay [2], “with no effect”; in assay [3] it was “decreasing interaction strength”.
In the case of H60A;R117A;R119A, the “effect of a mutation on the interaction” value was “disrupting interaction strength” in assay [1]; “with no effect” in assay [2]; “decreasing interaction strength” in assay [3]; “disrupting interaction strength” in assay [4]; “disrupting interaction strength” in assay [5].
Turning to T34N, the “effect of a mutation on the interaction” value in assay [6] is “disrupting interaction strength”.
In the case of Q75L, in assay [6], the “effect of a mutation on the interaction” value is reported as “with no effect”.
